Measured values taken from paper PMC4056859.

How the values were obtained:
[1] = biological target: ht-ADH single-tryptophan variant W87in (W49F:W167Y) (Bacillus stearothermophilus); experiment: SEC
[2] = biological target: ht-ADH single-tryptophan variant W167in (W49F:W87F) (Bacillus stearothermophilus); experiment: SEC

| stoichiometry N [1] | stoichiometry N [2] | Substance |
| --- | --- | --- |
| 4 |  | ht-ADH single-tryptophan variant W87in (W49F:W167Y) (enzyme) |
|  | 4 | ht-ADH single-tryptophan variant W167in (W49F:W87F) (enzyme) |
